Assay results reported in the Immune Epitope Database (IEDB).
pIC50, pKd: −log10 of the molar value.

Key:
HLA-B*53:01 [1] = assay: IEDB peptide-MHC binding, purified MHC/competitive/radioactivity; filed as Kd, often an IC50 or EC50 that approximates it; ≥ and ≤ were set here for values at or beyond the usual limits of such assays
HLA-B*07:02 [2] = assay: as above
HLA-B*54:01 [3] = assay: as above
HLA-B*35:01 [4] = assay: IEDB peptide-MHC binding, purified MHC/competitive/radioactivity; ≥ and ≤ were set here for values at or beyond the usual limits of such assays
HLA-B*51:01 [5] = assay: as above
HLA-B*51:01 [6] = assay: IEDB peptide-MHC binding, purified MHC/competitive/radioactivity; filed as Kd, often an IC50 or EC50 that approximates it; ≥ and ≤ were set here for values at or beyond the usual limits of such assays
HLA-B*07:02 [7] = assay: IEDB peptide-MHC binding, purified MHC/competitive/radioactivity; ≥ and ≤ were set here for values at or beyond the usual limits of such assays
HLA-B*54:01 [8] = assay: as above
HLA-B*35:01 [9] = assay: IEDB peptide-MHC binding, purified MHC/competitive/radioactivity; filed as Kd, often an IC50 or EC50 that approximates it; ≥ and ≤ were set here for values at or beyond the usual limits of such assays
HLA-B*53:01 [10] = assay: IEDB peptide-MHC binding, purified MHC/competitive/radioactivity; ≥ and ≤ were set here for values at or beyond the usual limits of such assays
[11] = source organism: Human immunodeficiency virus 1
[12] = source organism: human papillomavirus 18
[13] = source organism: Candida albicans
[14] = source organism: Hepatitis C virus (isolate Taiwan)
[15] = source organism: Human T-cell lymphotrophic virus type 1 (Caribbean isolate)
[16] = source organism: Human papillomavirus type 6b
[17] = source organism: Human T-cell leukemia virus type I

FAVRPQVPL
pKd (HLA-B*53:01 [1]; [11]): 5.21 | pKd (HLA-B*07:02 [2]; [11]): 5.89 | pKd (HLA-B*54:01 [3]; [11]): 5.37 | pIC50 (HLA-B*35:01 [4]; [11]): 6.83 | pIC50 (HLA-B*51:01 [5]; [11]): 6.23

FPVRPQVPT
pKd (HLA-B*53:01 [1]; [11]): 5.89 | pKd (HLA-B*51:01 [6]; [11]): 5.89 | pIC50 (HLA-B*35:01 [4]; [11]): 7.59 | pIC50 (HLA-B*07:02 [7]; [11]): 6.42 | pIC50 (HLA-B*54:01 [8]; [11]): 8.74

SPLGERLEV
pKd (HLA-B*53:01 [1]; [12]): ≤ 4.60 | pKd (HLA-B*35:01 [9]; [12]): ≤ 4.60 | pKd (HLA-B*51:01 [6]; [12]): ≤ 4.60 | pKd (HLA-B*54:01 [3]; [12]): 5.04 | pIC50 (HLA-B*07:02 [7]; [12]): 7.38

FPVRPQVPI
pIC50 (HLA-B*53:01 [10]; [11]): 7.52 | pIC50 (HLA-B*35:01 [4]; [11]): 6.93 | pIC50 (HLA-B*51:01 [5]; [11]): 7.83 | pIC50 (HLA-B*07:02 [7]; [11]): 7.65 | pIC50 (HLA-B*54:01 [8]; [11]): 8.80

FPASFFIKL
pIC50 (HLA-B*53:01 [10]; [13]): 8.17 | pIC50 (HLA-B*35:01 [4]; [13]): 7.82 | pIC50 (HLA-B*51:01 [5]; [13]): 8.06 | pIC50 (HLA-B*07:02 [7]; [13]): 7.85 | pIC50 (HLA-B*54:01 [8]; [13]): 7.82

FPVRPQVPL
pIC50 (HLA-B*53:01 [10]; [11]): 6.72 | pIC50 (HLA-B*51:01 [5]; [11]): 6.17

FPYLVAYQA
pKd (HLA-B*53:01 [1]; [14]): 5.77 | pKd (HLA-B*07:02 [2]; [14]): 4.74 | pIC50 (HLA-B*51:01 [5]; [14]): 7.24

FPVRPQVPQ
pKd (HLA-B*53:01 [1]; [11]): 5.89 | pKd (HLA-B*51:01 [6]; [11]): 5.89 | pIC50 (HLA-B*35:01 [4]; [11]): 6.40 | pIC50 (HLA-B*07:02 [7]; [11]): 6.42 | pIC50 (HLA-B*54:01 [8]; [11]): 7.10

WPLLPHVIF
pKd (HLA-B*53:01 [1]; [15]): 6.00 | pIC50 (HLA-B*35:01 [4]; [15]): 6.74 | pIC50 (HLA-B*51:01 [5]; [15]): 6.58 | pIC50 (HLA-B*07:02 [7]; [15]): 6.44 | pIC50 (HLA-B*54:01 [8]; [15]): 7.20

IPFLTKFKL
pKd (HLA-B*35:01 [9]; [16]): 5.05 | pKd (HLA-B*07:02 [2]; [16]): 5.62 | pIC50 (HLA-B*53:01 [10]; [16]): 6.24 | pIC50 (HLA-B*51:01 [5]; [16]): 7.51 | pIC50 (HLA-B*54:01 [8]; [16]): 6.08

CPLERFAEL
pKd (HLA-B*54:01 [3]; source organism: Homo sapiens): 6.00 | pIC50 (HLA-B*53:01 [10]; source organism: Homo sapiens): 6.70 | pIC50 (HLA-B*35:01 [4]; source organism: Homo sapiens): 6.99 | pIC50 (HLA-B*51:01 [5]; source organism: Homo sapiens): 8.21 | pIC50 (HLA-B*07:02 [7]; source organism: Homo sapiens): 7.17

QPFILYAHI
pKd (HLA-B*53:01 [1]; [12]): 5.26 | pKd (HLA-B*35:01 [9]; [12]): ≤ 4.60 | pKd (HLA-B*07:02 [2]; [12]): ≤ 4.60 | pKd (HLA-B*54:01 [3]; [12]): 5.53 | pIC50 (HLA-B*51:01 [5]; [12]): 7.59

LPQPPICTI
pIC50 (HLA-B*51:01 [5]; source organism: Homo sapiens): 8.37 | pIC50 (HLA-B*07:02 [7]; source organism: Homo sapiens): 6.62 | pIC50 (HLA-B*54:01 [8]; source organism: Homo sapiens): 7.70

FPVRPQVPM
pKd (HLA-B*51:01 [6]; [11]): 5.89 | pIC50 (HLA-B*53:01 [10]; [11]): 7.49 | pIC50 (HLA-B*35:01 [4]; [11]): 7.89 | pIC50 (HLA-B*07:02 [7]; [11]): 8.42 | pIC50 (HLA-B*54:01 [8]; [11]): 7.10

IPLYRNGDF
pKd (HLA-B*53:01 [1]; source organism: Homo sapiens): ≤ 4.60 | pKd (HLA-B*35:01 [9]; source organism: Homo sapiens): ≤ 4.60 | pKd (HLA-B*51:01 [6]; source organism: Homo sapiens): 5.26 | pKd (HLA-B*54:01 [3]; source organism: Homo sapiens): ≤ 4.60 | pIC50 (HLA-B*07:02 [7]; source organism: Homo sapiens): 7.22

LPTTLFQPY
pKd (HLA-B*53:01 [1]; [17]): 4.93 | pKd (HLA-B*35:01 [9]; [17]): 5.81 | pIC50 (HLA-B*51:01 [5]; [17]): 7.38 | pIC50 (HLA-B*07:02 [7]; [17]): 6.37 | pIC50 (HLA-B*54:01 [8]; [17]): 9.08

FPPEGVSIW
pKd (HLA-B*35:01 [9]; source organism: Homo sapiens): 5.37 | pKd (HLA-B*07:02 [2]; source organism: Homo sapiens): ≤ 4.60 | pKd (HLA-B*54:01 [3]; source organism: Homo sapiens): 5.41 | pIC50 (HLA-B*53:01 [10]; source organism: Homo sapiens): 7.80 | pIC50 (HLA-B*51:01 [5]; source organism: Homo sapiens): 7.68

MPNQAQMRI
pKd (HLA-B*35:01 [9]; source organism: Homo sapiens): 5.98 | pIC50 (HLA-B*53:01 [10]; source organism: Homo sapiens): 7.70 | pIC50 (HLA-B*51:01 [5]; source organism: Homo sapiens): 7.85 | pIC50 (HLA-B*07:02 [7]; source organism: Homo sapiens): 6.22 | pIC50 (HLA-B*54:01 [8]; source organism: Homo sapiens): 6.37
